The results in this text go back to patent US20030229204A1 (Dana-Farber, published 2003).

For test [1], the target named is T1, full-length mouse PGC-1 (aa 1-797) (mouse, UniProt O70343 1-797, [35S]methionine-labeled in the pull-down assays).
T1 construct: In vitro reticulocyte translation product in the pull-downs; the same full-length protein was expressed from pSV-SPORT in the transcription assays; also called reticulocyte-translated PGC-1
T1 sequence: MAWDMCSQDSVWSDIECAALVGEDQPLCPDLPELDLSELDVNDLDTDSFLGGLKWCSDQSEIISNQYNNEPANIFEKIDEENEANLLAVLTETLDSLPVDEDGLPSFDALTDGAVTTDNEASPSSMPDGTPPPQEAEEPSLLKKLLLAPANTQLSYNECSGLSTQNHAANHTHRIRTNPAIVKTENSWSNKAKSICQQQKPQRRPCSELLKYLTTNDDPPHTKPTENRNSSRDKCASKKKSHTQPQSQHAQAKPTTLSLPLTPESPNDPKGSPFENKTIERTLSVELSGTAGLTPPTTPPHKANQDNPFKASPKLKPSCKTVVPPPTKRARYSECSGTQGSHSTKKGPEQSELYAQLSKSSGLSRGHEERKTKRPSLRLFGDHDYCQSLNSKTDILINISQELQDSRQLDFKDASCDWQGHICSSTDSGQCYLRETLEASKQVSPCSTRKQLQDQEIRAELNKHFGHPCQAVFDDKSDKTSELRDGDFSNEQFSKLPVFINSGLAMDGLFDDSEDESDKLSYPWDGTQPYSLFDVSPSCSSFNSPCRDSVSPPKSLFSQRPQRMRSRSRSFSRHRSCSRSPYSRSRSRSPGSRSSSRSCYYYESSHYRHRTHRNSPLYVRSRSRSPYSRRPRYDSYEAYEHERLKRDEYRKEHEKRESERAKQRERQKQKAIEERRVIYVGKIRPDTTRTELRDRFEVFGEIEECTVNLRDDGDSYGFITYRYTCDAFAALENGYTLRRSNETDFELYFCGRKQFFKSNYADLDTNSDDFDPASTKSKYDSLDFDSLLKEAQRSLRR
Put plainly: pull-down of in vitro-translated PGC-1 with GST-PPARγ deletion. An excerpt:
Most of the nuclear hormone receptor coactivators identified to date interact with the C-terminal AF-2 domain, which is responsible for ligand-dependent transcriptional activation.

The target in test [2] is T2, GST-PPARγ fusion protein (immobilized PPARγ) (UniProt P37238 1-505).
T2 construct: also called FST-PPARγ fusion protein; bacterially expressed PPARγ immobilized on beads; not shown: glutathione S-transferase (GST) moiety; printed as 'FST'
T2 sequence (looked up): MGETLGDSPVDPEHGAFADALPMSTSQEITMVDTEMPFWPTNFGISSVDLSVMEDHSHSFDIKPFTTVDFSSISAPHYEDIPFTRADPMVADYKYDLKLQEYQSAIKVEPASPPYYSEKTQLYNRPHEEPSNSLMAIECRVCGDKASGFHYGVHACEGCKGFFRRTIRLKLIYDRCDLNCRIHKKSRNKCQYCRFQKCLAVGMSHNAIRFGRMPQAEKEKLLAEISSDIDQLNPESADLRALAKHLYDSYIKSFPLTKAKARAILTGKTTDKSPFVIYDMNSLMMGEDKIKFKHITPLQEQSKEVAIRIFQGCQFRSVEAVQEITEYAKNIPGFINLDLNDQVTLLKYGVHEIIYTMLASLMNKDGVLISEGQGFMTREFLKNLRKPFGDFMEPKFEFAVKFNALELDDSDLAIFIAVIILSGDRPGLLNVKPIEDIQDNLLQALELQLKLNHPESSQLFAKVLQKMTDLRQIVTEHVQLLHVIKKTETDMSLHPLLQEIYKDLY
Put plainly: pull-down of in vitro-translated 35S-labeled PGC-1 deletion with immobilized GST-PPARγ. An excerpt: These were then translated into vitro with an [³⁵S]methionine-label. One microliter of each in vitro translation reaction was resolved by SDS-PAGE and autoradigraphed.

B1: GST fusion of PPARγ 228-505 (receptor, mouse, UniProt P37238 228-505, looked up)
chain: DIDQLNPESADLRALAKHLYDSYIKSFPLTKAKARAILTGKTTDKSPFVIYDMNSLMMGEDKIKFKHITPLQEQSKEVAIRIFQGCQFRSVEAVQEITEYAKNIPGFINLDLNDQVTLLKYGVHEIIYTMLASLMNKDGVLISEGQGFMTREFLKNLRKPFGDFMEPKFEFAVKFNALELDDSDLAIFIAVIILSGDRPGLLNVKPIEDIQDNLLQALELQLKLNHPESSQLFAKVLQKMTDLRQIVTEHVQLLHVIKKTETDMSLHPLLQEIYKDLY
notes: not shown: glutathione S-transferase (GST) moiety of pGEX 5X2
As to B1, the binding result in test [1] is “no binding”.

B2: PGC-1 1-292 (other)
chain: MAWDMCSQDSVWSDIECAALVGEDQPLCPDLPELDLSELDVNDLDTDSFLGGLKWCSDQSEIISNQYNNEPANIFEKIDEENEANLLAVLTETLDSLPVDEDGLPSFDALTDGAVTTDNEASPSSMPDGTPPPQEAEEPSLLKKLLLAPANTQLSYNECSGLSTQNHAANHTHRIRTNPAIVKTENSWSNKAKSICQQQKPQRRPCSELLKYLTTNDDPPHTKPTENRNSSRDKCASKKKSHTQPQSQHAQAKPTTLSLPLTPESPNDPKGSPFENKTIERTLSVELSGTAG
modifications: [35S]methionine-labeled
notes: In vitro translated; still contains the LXXLL motif (aa 142-146)
For B2, in test [2], the binding result is given as “no binding”.
